Test results published in US20180303952A1 (CYTOMX THERAPEUTICS, published 2018).
Where “and” joins values, the source holds several entries; their conditions need not be identical. Equal values may be shown once.

B1: humanized anti-human CD147 monoclonal antibody hu 3A11 Lc1/Hc1 (antibody, V domains shown)
VH: EVQLVESGGGLVQPGGSLRLSCAASGFTFSNYWMDWVRQAPGKGLEWVGEIRLKSYNYATHYAASVKGRFTISRDDSKNSVYLQMNSLKTEDTAVYYCTAAGTDYWGQGTLVTVSS
VL: DIQMTQSPSSLSASVGDRVTITCRASQSVRTDVGWYQQKPGKAPKLLIYYSSNRYTGVPSRFSGSGSGTDFTLTISSLQPEDFATYYCQQDYSSPYTFGQGTKLEIK
notes: Detected with anti-human Fab or anti-human IgG secondary antibodies; also called hu 3A11 (hu Lc1/hu Hc1); hu 3A11 (hu Hc1/Lc1)
B2: mouse anti-human CD147 monoclonal antibody 3A11 (antibody, V domains shown)
VH: EVKLEESGGGLVQPGGSMKLSCVASGFTFSNYWMNWVRQSPEKGLEWVGEIRLKSYNYATHYVESVEGRFTISRDDSKSSVYLQMNNLRAEDTGIYYCTAAGTDYWGQGTTLTVSS
VL: SIVMTQIPKILLVSAGDRVTITCKASQSVRTDVAWYQQKPGQSPKLLIYYSSNRYTGVPDRFTGSGYGTDFTFTISTVQAEDLAVYFCQQDYSSPFTFGSGTKLEIK
notes: Mouse hybridoma antibody, detected with anti-mouse Fc secondary antibody; also called Mouse 3A11; mu 3A11

Experiments:
[1] = target: T1, recombinant human CD147-Fc chimeric protein (glycosylated) (human, UniProt P35613-2 25-205, glycosylated as supplied (migrates at about 62 kDa)); assay: ELISA, CD147-Fc adsorbed at 1 ug/mL, anti-human Fab-peroxidase detection; apparent KD
T1 construct: Bought protein; also called CD147-Fc (glycosylated); R&D Systems cat. no; 927-EMN-050; Fc part of the bought chimera not given
T1 sequence (looked up): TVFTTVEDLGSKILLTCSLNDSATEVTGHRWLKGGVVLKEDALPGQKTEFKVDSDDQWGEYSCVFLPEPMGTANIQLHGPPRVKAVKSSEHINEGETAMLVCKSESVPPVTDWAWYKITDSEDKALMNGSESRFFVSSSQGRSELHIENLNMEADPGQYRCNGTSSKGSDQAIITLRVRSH
Protocol: (§1) After buffer exchange with PBS, the deglycosylated or glycosylated proteins were adsorbed onto ELISA plates at 1 μg/mL. […] Bound humanized antibody of the present disclosure was detected with anti-human Fab-peroxidase secondary antibody and the mouse 3A11 monoclonal antibody was detected with anti-mouse Fc-peroxidase secondary antibody, and Ultra TMB detection (Thermo Fisher Scientific).

[2] = target: T2, human CD147 protein (adsorbed to ELISA plates) (human, UniProt P35613-2 22-205, limits assumed); assay: ELISA, human CD147 protein adsorbed to plate, anti-human Fab-peroxidase detection; apparent KD
T2 construct: also called human CD147 polypeptide; Basigin
T2 sequence (looked up): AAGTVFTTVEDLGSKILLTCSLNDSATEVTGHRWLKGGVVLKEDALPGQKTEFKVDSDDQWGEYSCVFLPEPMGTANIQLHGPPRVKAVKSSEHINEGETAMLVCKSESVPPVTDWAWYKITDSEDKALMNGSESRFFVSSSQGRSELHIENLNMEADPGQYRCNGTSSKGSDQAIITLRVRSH
Protocol: (§2) The antibody of the present disclosure that was assayed in this exemplary study was hu 3A11 Lc1/Hc1 (VL of SEQ ID NO: 5 and VH of SEQ ID NO: 1). Mouse anti-human CD147 monoclonal antibody 3A11 (VL of SEQ ID NO: 8 and VH of SEQ ID NO: 4) was assayed as a reference. Using a standard ELISA protocol, human CD147 protein was absorbed to ELISA plates and subsequently incubated with the indicated concentration of antibody of the present disclosure. Bound humanized antibody of the present disclosure was detected with anti-human Fab-peroxidase secondary antibody and the mouse 3A11 monoclonal antibody was detected with anti-mouse Fc-peroxidase secondary antibody, and Ultra TMB detection (Thermo Fisher Scientific).

[3] = target: T2, human CD147 protein (adsorbed to ELISA …); assay: as above; remark: listed apart in the source
Protocol: The antibodies of the present disclosure that were assayed in this exemplary study were hu 3A11 Lc1/hu 3A11 Hc1 (VL of SEQ ID NO: 5 and VH of SEQ ID NO: 1), hu 3A11 Lc2/hu 3A11 Hc2 (VL of SEQ ID NO: 6 and VH of SEQ ID NO: 2), hu 3A11 Lc4/hu 3A11 Hc2 (VL of SEQ ID NO: 8 and VH of SEQ ID NO: 2). Using a standard ELISA protocol, human CD147 protein was absorbed to ELISA plates and subsequently incubated with the indicated concentration of antibody of the present disclosure. Bound humanized antibody of the present disclosure was detected with anti-human Fab-peroxidase secondary antibody, and Ultra TMB detection (Thermo Fisher Scientific).

[4] = target: T2, human CD147 protein (adsorbed to ELISA …); assay: as above; remark: listed apart in the source
Protocol: (§3) Using a standard ELISA protocol, human CD147 protein was absorbed to ELISA plates and subsequently incubated with the indicated concentration of antibody of the present disclosure. Bound humanized activatable antibody of the present disclosure was detected with anti-human Fab-peroxidase secondary antibody and Ultra TMB detection (Thermo Fisher Scientific).

[5] = target: T2, human CD147 protein (adsorbed to ELISA …); assay: as above; remark: listed apart in the source
Protocol: as §3, with “For the exemplary assay depicted in FIGS. 7A-7C,” for “Using a”, “protocol was used, in which” for “protocol,”

[6] = target: T3, cynomolgus monkey CD147 on the cynomolgus primary kidney epithelial cell line (cynomolgus monkey); assay: FACS on cynomolgus primary kidney epithelial cell line, Alexa Fluor 647 goat anti-human IgG detection
T3 construct: whole, on cells; also called cynomolgus CD147
Protocol: In this study, the binding of the humanized anti-human CD147 antibody of the present disclosure to the indicated cell lines were performed using a standard FACS labelling method. Briefly, cells were labeled with the indicated antibodies of the present disclosure: anti-human CD147 antibody (humanized anti-human CD147 hu3A11 antibody; VH of SEQ ID NO: 1, VL of SEQ ID NO: 5) at the indicated concentrations and subsequently detected with an Alexa Fluor 647 labeled goat anti-human IgG secondary antibody.

[7] = target: T4, recombinant human CD147-Fc chimeric protein deglycosylated with Protein Deglycosylation Mix II (New England … (human, UniProt P35613-2 25-205, N- and simple O-linked carbohydrates removed enzymatically (NEB Protein Deglycosylation Mix II, about 16 hrs at 37 C))); assay: ELISA, deglycosylated CD147-Fc adsorbed at 1 ug/mL, anti-human Fab-peroxidase detection; apparent KD
T4 construct: Same bought protein as m9 after deglycosylation (migrates at 52 and 48 kDa); also called CD147-Fc (deglyc-NEB); Fc part of the bought chimera not given
T4 sequence (looked up): T1 sequence (looked up)
Protocol: (§4) In this example, recombinant human CD147-Fc chimeric protein (R&D Systems, cat. no. 927-EMN-050) was deglycosylated of N- and simple O-linked carbohydrates using the Protein Deglycosylation Mix II (˜16 hrs incubation at 37° C.; New England Biolabs, cat. no. P6044S) or the Enzymatic Protein Deglycosylation Kit (˜1.5 days+incubation at 37° C.; Sigma-Aldrich, cat. no. EDEGLY) in accordance with their respective protocols. […] Bovine fetuin, which includes both N- and O-linked carbohydrates, was used a control for the extent of deglycosylation.
as §1

[8] = target: T5, recombinant human CD147-Fc chimeric protein deglycosylated with Enzymatic Protein Deglycosylation Kit … (human, UniProt P35613-2 25-205, N- and simple O-linked carbohydrates removed enzymatically (Sigma-Aldrich EDEGLY kit, about 1.5 days at 37 C)); assay: as above
T5 construct: Same bought protein as m9 after deglycosylation (migrates at 52 and 48 kDa); also called CD147-Fc (deglyc-Sigma); Fc part of the bought chimera not given
T5 sequence (looked up): T1 sequence (looked up)
Protocol: as §4, §1

[9] = target: T2, human CD147 protein (adsorbed to ELISA …); assay: ELISA, human CD147 protein adsorbed to plate, anti-mouse Fc-peroxidase detection; apparent KD
Protocol: as §2

| Binder | Kd [1] [nM] | Kd [2] [nM] | Kd [3] [nM] | Kd [4] [nM] | Kd [5] | Kd [6] [nM] | Kd [7] [nM] | Kd [8] [nM] | Kd [9] [nM] |
| --- | --- | --- | --- | --- | --- | --- | --- | --- | --- |
| B1 | 0.191 | 0.71 | 0.852 | 0.14 | 0.45 nM and 0.59 nM | 1.3 | 0.185 | 0.175 |  |
| B2 |  |  |  |  |  |  |  |  | 0.293 |
